Assay results taken from patent US20020004209A1, “Use of SLIM3 for binding to molecules” (Schering Aktiengesellschaft Patents, priority 1999, published 2002).

Experiments:
co-activator RIP140 = target: T1, co-activator RIP140 (Homo sapiens, UniProt P48552); test: GST-protein-interaction test; assay type: binding; conditions: in vitro
T1 sequence (P48552 1-1158): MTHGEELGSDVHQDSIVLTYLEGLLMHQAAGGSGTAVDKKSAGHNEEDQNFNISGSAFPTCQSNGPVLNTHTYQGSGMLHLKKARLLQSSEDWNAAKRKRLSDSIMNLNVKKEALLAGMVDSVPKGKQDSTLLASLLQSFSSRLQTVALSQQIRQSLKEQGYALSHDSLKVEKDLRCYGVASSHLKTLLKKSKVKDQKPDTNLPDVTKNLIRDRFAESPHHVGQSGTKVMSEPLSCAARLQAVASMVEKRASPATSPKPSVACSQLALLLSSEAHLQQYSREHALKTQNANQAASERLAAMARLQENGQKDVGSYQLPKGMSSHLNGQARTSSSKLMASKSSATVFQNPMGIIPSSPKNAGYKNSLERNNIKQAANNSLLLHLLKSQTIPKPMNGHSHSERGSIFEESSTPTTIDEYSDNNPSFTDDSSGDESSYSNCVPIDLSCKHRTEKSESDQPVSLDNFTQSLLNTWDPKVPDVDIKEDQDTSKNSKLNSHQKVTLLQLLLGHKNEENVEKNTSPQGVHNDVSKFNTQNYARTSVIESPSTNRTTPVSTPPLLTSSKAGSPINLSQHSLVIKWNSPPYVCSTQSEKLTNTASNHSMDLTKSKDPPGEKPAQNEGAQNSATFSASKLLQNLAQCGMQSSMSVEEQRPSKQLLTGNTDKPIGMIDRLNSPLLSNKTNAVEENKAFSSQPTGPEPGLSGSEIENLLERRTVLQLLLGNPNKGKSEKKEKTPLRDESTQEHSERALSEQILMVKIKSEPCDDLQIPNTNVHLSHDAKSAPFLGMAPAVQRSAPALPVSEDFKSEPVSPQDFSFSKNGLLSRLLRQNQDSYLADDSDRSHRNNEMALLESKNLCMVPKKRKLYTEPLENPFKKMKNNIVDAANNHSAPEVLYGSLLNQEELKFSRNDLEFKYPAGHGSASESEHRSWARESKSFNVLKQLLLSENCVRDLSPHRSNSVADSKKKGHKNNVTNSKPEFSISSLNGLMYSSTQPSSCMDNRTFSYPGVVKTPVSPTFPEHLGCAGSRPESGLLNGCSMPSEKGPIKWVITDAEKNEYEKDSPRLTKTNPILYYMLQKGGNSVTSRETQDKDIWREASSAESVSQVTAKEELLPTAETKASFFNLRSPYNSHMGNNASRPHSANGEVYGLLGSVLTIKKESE
T1 sequence (Q14192 1-279 partner): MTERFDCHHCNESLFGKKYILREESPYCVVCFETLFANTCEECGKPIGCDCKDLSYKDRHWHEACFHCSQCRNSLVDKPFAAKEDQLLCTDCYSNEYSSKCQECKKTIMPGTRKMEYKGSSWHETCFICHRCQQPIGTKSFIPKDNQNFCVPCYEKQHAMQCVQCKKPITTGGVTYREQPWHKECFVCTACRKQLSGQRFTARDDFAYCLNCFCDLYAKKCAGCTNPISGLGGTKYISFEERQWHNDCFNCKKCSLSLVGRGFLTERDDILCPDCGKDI

co-activator AIB/ACTR = co-activator AIB/ACTR (Homo sapiens, UniProt Q9Y6Q9); test: GST-protein-interaction test; assay type: binding; conditions: in vitro
co-activator AIB/ACTR, sequence (Q9Y6Q9 whole entry, one chain of several): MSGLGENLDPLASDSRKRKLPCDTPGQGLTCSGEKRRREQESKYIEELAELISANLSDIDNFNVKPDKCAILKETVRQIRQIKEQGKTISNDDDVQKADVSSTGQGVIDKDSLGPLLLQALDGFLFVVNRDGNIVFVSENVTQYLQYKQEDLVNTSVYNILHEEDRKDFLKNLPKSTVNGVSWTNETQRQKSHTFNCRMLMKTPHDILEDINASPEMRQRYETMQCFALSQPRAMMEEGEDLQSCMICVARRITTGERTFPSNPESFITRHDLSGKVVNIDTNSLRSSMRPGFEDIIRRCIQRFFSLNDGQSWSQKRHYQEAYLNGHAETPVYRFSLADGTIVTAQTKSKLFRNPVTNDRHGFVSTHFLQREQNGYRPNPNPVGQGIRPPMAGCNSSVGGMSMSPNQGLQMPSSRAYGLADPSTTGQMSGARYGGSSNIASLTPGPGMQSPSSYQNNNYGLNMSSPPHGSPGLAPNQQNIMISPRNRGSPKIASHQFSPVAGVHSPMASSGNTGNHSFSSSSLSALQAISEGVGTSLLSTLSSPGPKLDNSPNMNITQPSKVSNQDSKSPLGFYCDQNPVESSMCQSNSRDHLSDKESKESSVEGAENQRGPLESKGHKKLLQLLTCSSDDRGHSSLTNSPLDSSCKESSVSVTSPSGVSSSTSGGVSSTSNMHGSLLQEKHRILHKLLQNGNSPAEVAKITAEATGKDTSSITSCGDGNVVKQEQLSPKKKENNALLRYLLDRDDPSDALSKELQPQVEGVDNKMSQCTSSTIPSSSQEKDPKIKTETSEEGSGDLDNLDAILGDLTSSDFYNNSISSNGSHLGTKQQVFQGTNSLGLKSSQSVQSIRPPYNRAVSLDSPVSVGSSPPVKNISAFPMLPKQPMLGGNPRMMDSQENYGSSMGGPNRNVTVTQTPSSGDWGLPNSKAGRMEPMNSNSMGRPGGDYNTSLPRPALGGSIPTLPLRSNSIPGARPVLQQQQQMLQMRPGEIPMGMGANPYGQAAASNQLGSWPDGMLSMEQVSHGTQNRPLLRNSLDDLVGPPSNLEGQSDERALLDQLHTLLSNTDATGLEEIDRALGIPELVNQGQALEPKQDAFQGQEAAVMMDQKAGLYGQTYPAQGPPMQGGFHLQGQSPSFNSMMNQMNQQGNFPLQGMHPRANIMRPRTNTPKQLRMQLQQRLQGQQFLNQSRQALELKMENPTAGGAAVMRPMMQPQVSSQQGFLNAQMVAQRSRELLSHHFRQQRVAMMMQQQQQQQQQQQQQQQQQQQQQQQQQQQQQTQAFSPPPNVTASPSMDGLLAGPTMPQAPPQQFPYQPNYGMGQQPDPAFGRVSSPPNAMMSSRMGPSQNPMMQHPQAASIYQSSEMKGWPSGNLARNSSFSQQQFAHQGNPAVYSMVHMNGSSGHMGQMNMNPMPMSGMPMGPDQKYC

co-activator SRC1 = co-activator SRC1 (Homo sapiens, UniProt Q15788); test: GST-protein-interaction test; assay type: binding; conditions: in vitro
co-activator SRC1, sequence (Q15788 whole entry): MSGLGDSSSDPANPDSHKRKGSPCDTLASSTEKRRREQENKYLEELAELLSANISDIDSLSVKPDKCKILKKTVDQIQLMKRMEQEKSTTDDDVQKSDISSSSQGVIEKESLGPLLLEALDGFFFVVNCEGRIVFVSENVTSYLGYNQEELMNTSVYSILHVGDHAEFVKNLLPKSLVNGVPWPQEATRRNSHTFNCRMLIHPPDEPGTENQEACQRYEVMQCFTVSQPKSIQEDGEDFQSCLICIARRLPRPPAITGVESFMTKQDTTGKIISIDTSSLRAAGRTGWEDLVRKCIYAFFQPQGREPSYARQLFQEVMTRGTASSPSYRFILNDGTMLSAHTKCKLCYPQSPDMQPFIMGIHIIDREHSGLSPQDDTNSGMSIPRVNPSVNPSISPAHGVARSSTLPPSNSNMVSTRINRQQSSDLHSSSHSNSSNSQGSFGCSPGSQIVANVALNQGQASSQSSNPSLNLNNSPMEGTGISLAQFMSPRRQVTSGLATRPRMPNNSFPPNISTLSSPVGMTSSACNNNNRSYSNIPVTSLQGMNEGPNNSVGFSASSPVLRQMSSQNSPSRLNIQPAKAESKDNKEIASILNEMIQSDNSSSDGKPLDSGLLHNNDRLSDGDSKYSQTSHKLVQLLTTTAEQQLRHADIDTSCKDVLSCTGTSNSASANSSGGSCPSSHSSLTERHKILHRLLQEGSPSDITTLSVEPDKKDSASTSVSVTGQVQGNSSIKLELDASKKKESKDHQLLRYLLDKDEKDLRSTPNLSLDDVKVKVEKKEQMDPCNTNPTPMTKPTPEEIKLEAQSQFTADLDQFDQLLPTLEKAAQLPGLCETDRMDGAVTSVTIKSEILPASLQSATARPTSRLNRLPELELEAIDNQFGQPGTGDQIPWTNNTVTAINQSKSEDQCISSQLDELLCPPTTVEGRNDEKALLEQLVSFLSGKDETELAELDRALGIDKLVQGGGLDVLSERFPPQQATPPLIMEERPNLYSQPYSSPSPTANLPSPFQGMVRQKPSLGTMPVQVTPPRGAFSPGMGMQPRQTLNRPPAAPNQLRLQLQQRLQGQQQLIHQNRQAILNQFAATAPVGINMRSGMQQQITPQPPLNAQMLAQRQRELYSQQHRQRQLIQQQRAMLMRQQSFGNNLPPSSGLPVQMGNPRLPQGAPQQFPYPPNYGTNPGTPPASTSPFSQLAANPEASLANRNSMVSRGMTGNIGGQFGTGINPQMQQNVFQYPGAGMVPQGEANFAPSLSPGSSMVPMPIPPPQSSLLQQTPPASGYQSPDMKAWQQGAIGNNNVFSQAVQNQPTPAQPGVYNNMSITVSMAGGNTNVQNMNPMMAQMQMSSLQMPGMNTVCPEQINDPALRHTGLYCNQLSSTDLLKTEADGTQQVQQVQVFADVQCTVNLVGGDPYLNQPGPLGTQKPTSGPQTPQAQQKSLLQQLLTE

DNA = DNA binding
androgen receptor = target: T2, androgen receptor (Homo sapiens, UniProt P10275); test: androgen receptor co-activation, MMTV-LUC or proteasin-Luc reporter, transient transfection; assay type: cell-based; conditions: 293 cells; with R1881; increasing amount of SLIM3-expression plasmid
T2 construct: expressed in transfected cells; host or cells: 293 cells
T2 sequence (P10275 1-920): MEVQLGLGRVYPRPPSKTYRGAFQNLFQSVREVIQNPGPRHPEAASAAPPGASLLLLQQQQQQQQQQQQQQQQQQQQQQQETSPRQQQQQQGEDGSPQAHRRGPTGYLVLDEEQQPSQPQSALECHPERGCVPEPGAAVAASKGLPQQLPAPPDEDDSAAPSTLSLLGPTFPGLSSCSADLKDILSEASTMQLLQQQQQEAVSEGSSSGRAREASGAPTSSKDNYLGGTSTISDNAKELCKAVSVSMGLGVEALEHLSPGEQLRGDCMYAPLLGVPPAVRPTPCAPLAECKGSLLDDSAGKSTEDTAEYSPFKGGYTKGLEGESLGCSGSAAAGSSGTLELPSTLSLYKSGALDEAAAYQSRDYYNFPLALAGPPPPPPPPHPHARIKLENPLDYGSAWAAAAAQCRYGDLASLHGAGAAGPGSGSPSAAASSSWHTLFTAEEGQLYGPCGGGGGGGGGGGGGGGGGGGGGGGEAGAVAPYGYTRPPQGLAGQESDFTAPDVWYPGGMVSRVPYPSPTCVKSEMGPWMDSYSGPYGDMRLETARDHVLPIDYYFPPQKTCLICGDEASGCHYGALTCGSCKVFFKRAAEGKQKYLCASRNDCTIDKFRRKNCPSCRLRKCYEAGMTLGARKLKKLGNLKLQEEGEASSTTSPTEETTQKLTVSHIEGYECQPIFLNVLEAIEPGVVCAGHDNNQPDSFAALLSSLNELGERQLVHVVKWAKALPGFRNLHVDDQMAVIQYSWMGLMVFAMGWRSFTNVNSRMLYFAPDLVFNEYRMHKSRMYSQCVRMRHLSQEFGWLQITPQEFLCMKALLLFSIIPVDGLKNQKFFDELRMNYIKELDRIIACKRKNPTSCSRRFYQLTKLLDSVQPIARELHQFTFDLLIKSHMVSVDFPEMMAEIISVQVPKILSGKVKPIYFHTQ
T2 sequence (Q14192 1-279 partner): T1 sequence (Q14192 1-279 partner)

interaction with co-activator (co-activator RIP140): interacts
interaction with co-activator (co-activator AIB/ACTR): interacts
interaction with co-activator (co-activator SRC1): no interaction
binding to DNA (DNA): does not bind
additional super-induction of the reporter gene (androgen receptor): three-fold to five-fold
Substance: SLIM3: LIM-domain protein of 279 amino acids, co-activator for nuclear receptors AR and ERβ
